Measurements reported in article PMC11192767, “A cocktail nanovaccine targeting key entry glycoproteins elicits high neutralizing antibody levels against EBV infection” (Nature Communications, 2024).

Target: the molecule itself
Assay: native gel or EMSA; gB before encapsulation and gB released from nanoparticles, analysed under native non-reducing conditions (Fig. S5A)

B1: EBV gB ectodomain (residues 22 to 672, fusion-loop residues replaced with HSV-1 residues), 6x His tag (domain or fragment)
chain: AQTPEQPAPPATTVQPTATRQQTSFPFRVCELSSHGDLFRFSSDIQCPSFGTRENHTEGLLMVFKDNIIPYSFKVRSYTKIVTNILIYNGHRADSVTNRHEEKFSVDSYETDQMDTIYQCYNAVKMTKDGLTRVYVDRDGVNITVNLKPTGGLANGVRRYASQTELYDAPGRVEATYRTRTTVNCLITDMMAKSNSPFDFFVTTTGQTVEMSPFYDGKNKETFHERADSFHVRTNYKIVDYDNRGTNPQGERRAFLDKGTYTLSWKLENRTAYCPLQHWQTFDSTIATETGKSIHFVTDEGTSSFVTNTTVGIELPDAFKCIEEQVNKTMHEKYEAVQDRYTKGQEAITYFITSGGLLLAWLPLTPRSLATVKNLTELTTPTSSPPSSPSPPAPSAARGSTPAAVLRRRRRDAGNATTPVPPTAPGKSLGTLNNPATVQIQFAYDSLRRQINRMLGDLARAWCLEQKRQNMVLRELTKINPTTVMSSIYGKAVAAKRLGDVISVSQCVPVNQATVTLRKSMRVPGSETMCYSRPLVSFSFINDTKTYEGQLGTDNEIFLTKKMTEVCQATSQYYFQSGNEIHVYNDYHHFKTIELDGIATLQTFISLNTSLIENIDFASLELYSRDEQRASNVFDLEGIFREYNFQAQNIA
notes: Epstein-Barr virus glycoprotein B (gB), ectodomain residues 22 to 672, PCR-amplified from the EBV M81 strain (GenBank KF373730.1); WY112-113 and WLIW193-196 replaced with HSV-1 residues HR177-178 and RVEA258-261; Tested both before encapsulation and after release from the nanoparticles; also called glycoprotein B; fusogen gB; source: 293F cells, transiently transfected (pCDNA3.1-gB), purified …
With B1 the “stoichiometry N” value was 3.
